Data set [1] deals with the molecule itself. In words: size exclusion chromatography (Superdex 200 10/300 GL), self-association. The method, then: FIG. 5. Multimeric complexes increase AP regulatory activity of MFHR1 in human serum. A) Size exclusion chromatography (Superdex 200 10/300 GL) of bovine serum albumin (BSA), serum plasma derived FH (hFH) and MFHR1. The three compositions of BSA mixture presented different retention volumes based on molecular mass, which was I. BSA trimer (198 kDa, 10.35 ml), II. BSA dimer (132 kDa, 11.45 ml) and III. BSA monomer (66 kDa, 13.4 ml). […] Theoretical trimer (II. 10.7), dimer (III. 11.4) intermediates (IV.-V.) or monomeric (IV. 13.5) MFHR1 are indicated in the elution profile. B) Analysis of MFHR1 after elution from SEC column as performed in A. 20 μl protein from fractions was loaded on a 10% SDS-PAGE and silver stained C) Afterwards, single or pooled MFHR1 SEC fractions were added into human serum at 10 nM and AP activation was proceeded by incubation in LPS coated wells using AP specific buffer conditions. Regulatory efficiency of MFHR1 fractions was analyzed by measuring C5b-9 complex formation. AP activity of untreated control serum was set to 100%.
Background: Size exclusion chromatography separates by hydrodynamic size, large species first.

In data set [2] the target is C5 (complement component C5) (UniProt P01031 19-673; P01031 678-1676). In words: ELISA, hFH (133 nM) immobilised, C5 in solution, detected with monoclonal C5 antibodies. As to the method:
FIG. 3. MFHR1 binds C5 and regulates terminal pathway activation by inhibition of the C5 convertase/C5 cleavage and MAC formation. A) MFHR1 binds to C5 as determined by ELISA. Equimolar amounts of MFHR1, full length FHR1, hFH or BSA (133 nM) were immobilized to Nunc plates and incubated with increasing concentrations (10, 20, 40 μg/ml) of C5. Binding was detected using monoclonal C5 antibodies and HRP-labelled secondary antibodies. Data are mean±SD from n=3 experiments B) MFHR1 inhibits AP activation by blockade of C5 cleavage. Cobra venom factor (CVF) C5 convertase was generated on sheep erythrocytes (sE) after adding Factor B (FB) and Factor D (FD). Hemolysis was induced after adding C5, C6, C7, C8 and C9 components and detected at 414 nm. […] C) MFHR1 inhibits formation of the membrane attack complex (MAC) on sE. MAC formation on sE was induced by incubation with C5b6, C7, C8 and C9 components and detected by hemolysis of cells. Preincubation of C5b6 with MFHR1, FHR1 or Eculizumab inhibited hemolysis at significant levels compared to hFH or BSA. […] In B and C control without regulator (w/o) was set as 100%. All data represent mean values ±SD of 3 separate experiments. ***P<0.001 vs. w/o control, one-way ANOVA with Bonferroni multiple comparison test.

Sequence of C5 (complement component C5) (P01031 19-673 limits assumed, chain 1 of 2): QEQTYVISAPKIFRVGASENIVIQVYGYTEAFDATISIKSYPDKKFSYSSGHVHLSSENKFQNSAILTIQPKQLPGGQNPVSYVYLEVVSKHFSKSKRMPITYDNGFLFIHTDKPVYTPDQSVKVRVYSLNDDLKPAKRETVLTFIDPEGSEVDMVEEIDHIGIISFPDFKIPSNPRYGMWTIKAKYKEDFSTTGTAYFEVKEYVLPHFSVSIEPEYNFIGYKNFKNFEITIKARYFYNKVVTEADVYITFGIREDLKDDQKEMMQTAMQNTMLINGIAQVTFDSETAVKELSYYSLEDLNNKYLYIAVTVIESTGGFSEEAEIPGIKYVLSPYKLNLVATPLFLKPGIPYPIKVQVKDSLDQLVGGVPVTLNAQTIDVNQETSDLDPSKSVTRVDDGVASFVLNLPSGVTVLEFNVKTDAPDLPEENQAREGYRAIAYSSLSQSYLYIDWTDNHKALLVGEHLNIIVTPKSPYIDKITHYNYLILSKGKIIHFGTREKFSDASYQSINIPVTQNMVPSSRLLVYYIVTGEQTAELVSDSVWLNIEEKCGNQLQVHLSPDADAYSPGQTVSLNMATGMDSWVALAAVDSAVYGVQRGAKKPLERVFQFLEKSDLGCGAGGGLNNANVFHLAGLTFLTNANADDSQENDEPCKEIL
Sequence of C5 (complement component C5) (P01031 678-1676 limits assumed, chain 2 of 2): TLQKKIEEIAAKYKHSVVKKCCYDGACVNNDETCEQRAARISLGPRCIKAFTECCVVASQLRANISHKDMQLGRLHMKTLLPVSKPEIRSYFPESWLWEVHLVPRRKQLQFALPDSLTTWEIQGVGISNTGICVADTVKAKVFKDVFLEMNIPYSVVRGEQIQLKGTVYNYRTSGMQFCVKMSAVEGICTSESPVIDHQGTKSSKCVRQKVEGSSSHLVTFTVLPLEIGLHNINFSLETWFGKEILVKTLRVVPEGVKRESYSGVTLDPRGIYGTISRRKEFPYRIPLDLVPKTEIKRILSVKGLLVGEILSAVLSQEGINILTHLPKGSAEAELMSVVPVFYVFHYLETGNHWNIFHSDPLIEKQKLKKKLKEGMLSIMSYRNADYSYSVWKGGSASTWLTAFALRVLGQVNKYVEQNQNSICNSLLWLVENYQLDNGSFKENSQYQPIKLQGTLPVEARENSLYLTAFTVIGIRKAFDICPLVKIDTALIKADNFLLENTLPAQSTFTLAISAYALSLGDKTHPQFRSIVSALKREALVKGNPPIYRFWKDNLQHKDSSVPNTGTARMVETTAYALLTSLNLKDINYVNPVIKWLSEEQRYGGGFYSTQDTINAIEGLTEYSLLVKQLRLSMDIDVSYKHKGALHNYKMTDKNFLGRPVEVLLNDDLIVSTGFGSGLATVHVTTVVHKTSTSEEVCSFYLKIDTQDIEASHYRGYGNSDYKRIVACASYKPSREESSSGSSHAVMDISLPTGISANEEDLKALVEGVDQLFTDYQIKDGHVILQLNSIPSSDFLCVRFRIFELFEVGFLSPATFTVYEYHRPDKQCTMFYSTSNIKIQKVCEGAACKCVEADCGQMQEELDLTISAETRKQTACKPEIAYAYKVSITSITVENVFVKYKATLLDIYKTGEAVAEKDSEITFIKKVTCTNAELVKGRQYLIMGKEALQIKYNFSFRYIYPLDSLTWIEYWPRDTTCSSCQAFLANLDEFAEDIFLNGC

B1: MFHR1 (His-tag - FHR1(SCR1-2)-FH(SCR1-4)-FH(SCR19-20)) (other)
chain: ADLGSHHHHHHHHHHDYDRSFCDFPKINHGILYDEEKYKPFSQVPTGEVFYYSCEYNFVSPSKSFWTRITCTEEGWSPTPKCLRLCFFPFVENGHSESSGQTHLEGDTVQIICNTGYRLQNNENNISCVERGWSTPPKCRSEDCNELPPRRNTEILTGSWSDQTYPEGTQAIYKCRPGYRSLGNVIMVCRKGEWVALNPLRKCQKRPCGHPGDTPFGTFTLTGGNVFEYGVKAVYTCNEGYQLLGEINYRECDTDGWTNDIPICEVVKCLPVTAPENGKIVSSAMEPDREYHFGQAVRFVCNSGYKIEGDEEMHCSDDGFWSKEKPKCVEISCKSPDVINGSPISQKIIYKENERFQYKCNMGYEYSERGDAVCTESGWRPLPSCEDSTGKCGPPPPIDNGDITSFPLSVYAPASSVEYQCQNLYQLEGNKRITCRNGQWSEPPKCLHPCVISREIMENYNIALRWTAKQKLYSRTGESVEFVCKRGYRLSSRSHTLRTTCWDGKLEYPTCAKR
notes: Recombinant fusion protein expressed in SF9 insect cells (baculovirus); By size exclusion chromatography it runs mostly as a multimer; also called MFHR1 with His tag
On to B1, for which the binding result in data set [1] was “binds”.

B2: human plasma derived Factor H (hFH) (other)
chain: EDCNELPPRRNTEILTGSWSDQTYPEGTQAIYKCRPGYRSLGNVIMVCRKGEWVALNPLRKCQKRPCGHPGDTPFGTFTLTGGNVFEYGVKAVYTCNEGYQLLGEINYRECDTDGWTNDIPICEVVKCLPVTAPENGKIVSSAMEPDREYHFGQAVRFVCNSGYKIEGDEEMHCSDDGFWSKEKPKCVEISCKSPDVINGSPISQKIIYKENERFQYKCNMGYEYSERGDAVCTESGWRPLPSCEEKSCDNPYIPNGDYSPLRIKHRTGDEITYQCRNGFYPATRGNTAKCTSTGWIPAPRCTLKPCDYPDIKHGGLYHENMRRPYFPVAVGKYYSYYCDEHFETPSGSYWDHIHCTQDGWSPAVPCLRKCYFPYLENGYNQNYGRKFVQGKSIDVACHPGYALPKAQTTVTCMENGWSPTPRCIRVKTCSKSSIDIENGFISESQYTYALKEKAKYQCKLGYVTADGETSGSITCGKDGWSAQPTCIKSCDIPVFMNARTKNDFTWFKLNDTLDYECHDGYESNTGSTTGSIVCGYNGWSDLPICYERECELPKIDVHLVPDRKKDQYKVGEVLKFSCKPGFTIVGPNSVQCYHFGLSPDLPICKEQVQSCGPPPELLNGNVKEKTKEEYGHSEVVEYYCNPRFLMKGPNKIQCVDGEWTTLPVCIVEESTCGDIPELEHGWAQLSSPPYYYGDSVEFNCSESFTMIGHRSITCIHGVWTQLPQCVAIDKLKKCKSSNLIILEEHLKNKKEFDHNSNIRYRCRGKEGWIHTVCINGRWDPEVNCSMAQIQLCPPPPQIPNSHNMTTTLNYRDGEKVSVLCQENYLIQEGEEITCKDGRWQSIPLCVEKIPCSQPPQIEHGTINSSRSSQESYAHGTKLSYTCEGGFRISEENETTCYMGKWSSPPQCEGLPCKSPPEISHGVVAHMSDSYQYGEEVTYKCFEGFGIDGPAIAKCLGEKWSHPPSCIKTDCLSLPSFENAIPMGEKKDVYKAGEQVTYTCATYYKMDGASNVTCINSRWTGRPTCRDTSCVNPPTVQNAYIVSRQMSKYPSGERVRYQCRSPYEMFGDEEVMCLNGNWTEPPQCKDSTGKCGPPPPIDNGDITSFPLSVYAPASSVEYQCQNLYQLEGNKRITCRNGQWSEPPKCLHPCVISREIMENYNIALRWTAKQKLYSRTGESVEFVCKRGYRLSSRSHTLRTTCWDGKLEYPTCAKR
notes: Purified from human plasma, so the mature protein; also called FHplasma; plasma purified FH
Take B2: the binding result in data set [2] is on record as “no binding (tested: 10, 20, 40 µg/ml of C5)”.

For the origin of these results see patent publication US20190300589A1 (GREENOVATION BIOTECH, published 2019).
